Non-standard residues stand in square brackets, D forms with d. Cit = NC(=O)NCCC[C@H](N)C(=O)O

For the assay, the target named is T1, murine E^d MHC class II allele (Mus musculus, UniProt P01904+P01915).
T1 sequence (P01904 26-255): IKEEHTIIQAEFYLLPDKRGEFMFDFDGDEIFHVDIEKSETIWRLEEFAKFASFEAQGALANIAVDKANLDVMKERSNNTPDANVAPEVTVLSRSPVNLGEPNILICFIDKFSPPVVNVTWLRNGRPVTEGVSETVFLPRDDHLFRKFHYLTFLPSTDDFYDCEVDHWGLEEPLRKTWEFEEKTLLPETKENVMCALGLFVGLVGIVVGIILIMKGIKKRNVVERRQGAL
T1 sequence (P01915 27-264 limits assumed): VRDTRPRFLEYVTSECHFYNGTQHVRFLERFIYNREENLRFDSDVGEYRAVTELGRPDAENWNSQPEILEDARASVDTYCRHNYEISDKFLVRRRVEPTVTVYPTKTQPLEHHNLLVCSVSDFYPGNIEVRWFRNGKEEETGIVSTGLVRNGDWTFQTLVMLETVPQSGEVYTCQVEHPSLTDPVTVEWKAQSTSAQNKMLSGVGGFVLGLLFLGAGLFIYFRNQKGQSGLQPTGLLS
The assay is described as follows: simultaneous assay, E^d allele (A20 APC, G28.C9 T hybridoma, HEL106-116; HT-2 [3H]TdR readout). Type of assay: cell-based. More on the design: The A20 and CH27 B cell lymphoma lines express H-2^d and H-2^k alleles, respectively; endogenous in cells; host or cells: A20 B cell lymphoma (mitomycin C-treated or paraformaldehyde-fixed). The essentials: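 Read-out is [3H]TdR incorporation into HT-2 indicator cells exposed to supernatant from a 24 h primary culture. That culture combined mitomycin C-treated APC (5×10^6 cells/mL, 0.025 mg/mL mitomycin C, 20 min, 37° C), peptide, effector compound and T hybridoma, all added at once.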

The mark [1] stands for this setting: Table 13, AE peptide 1 μM (fourth value), supernatant 1:4.
The mark [2] stands for this setting: Table 13, AE peptide 4 μM (third value), supernatant 1:4.
Where [3] appears, read: Table 13, AE peptide 16 μM (second value), supernatant 1:4.
Setting [4] is: Table 13, AE peptide 64 μM (first value), supernatant 1:4.
Where [5] appears, read: Table 14, AE peptide 64 μM, supernatant 1:4.
Setting [6] is: Table 4, AE109 homolog 64 μM, supernatant 1:2.
Setting [7] is: Table 6, AE peptide 64 μM, supernatant 1:4.
The mark [8] stands for this setting: Table 16, AE peptide 4 μM, supernatant 1:8.
The mark [9] stands for this setting: Table 1, AE peptide 16 μM (second value), 0.4 μM HEL106-116, supernatant 1:4.
[10] abbreviates: Table 1, AE peptide 64 μM (first value), 0.4 μM HEL106-116, supernatant 1:4.
The mark [11] stands for this setting: Table 5, AE peptide 64 μM, supernatant 1:4.
Setting [12] is: Table 7, AE peptide 64 μM, supernatant 1:4.
The mark [13] stands for this setting: Table 11, AE peptide 64 μM, supernatant 1:8.
The mark [14] stands for this setting: Table 15, AE peptide 16 μM, supernatant 1:4.
[15] abbreviates: Table 2, AE peptide 64 μM, 0.05 μM HEL106-116, supernatant 1:2.

Regarding Ac-LRMK (mL) PK-NH2 [AE175], the “Times Baseline Response, E^d” value by setting is: under setting [1], 1; under setting [2], 6; under setting [3], 36; under setting [4], 61; under setting [5], 15.9.

Turning to Ac-Y H MKLPKSAK-NH2 [AE133], the “Times Baseline Response, E^d” value under setting [6] was determined as 0.9.

In the case of Ac-Y M MKLPKSAK-NH2 [AE141], the “Times Baseline Response, E^d” value under setting [6] amounted to 1.1.

Ac-LR (mL) KLPK-NH2 [AE302]: the “Times Baseline Response, E^d” value under setting [5] is on record as 4.5.

Turning to Ac-Y Q MKLPKSAK-NH2 [AE138], the “Times Baseline Response, E^d” value under setting [6] is on record as 0.7.

For “Ac-LRM M LPK-NH2 (Ac-LRMMLPK-NH2) [AE220]”, the “Times Baseline Response, E^d” value under setting [7] is 2.8 and the “Times Baseline Response, E^d” value under setting [8] came out at 12.0.

Regarding Ac-LRMKLPK-NH2 [AE114], the “Times Baseline Response, E^d” value turned out to be 26.0 under setting [9]; 39.8 under setting [10]; 10.0 under setting [11]; 10.6 under setting [7]; 10.6 under setting [12]; 7.7 (Table 9, AE peptide 64 μM, supernatant 1:4). The “Times Baseline Response, E^d” value is recorded as 24.1 under setting [13]; 5 (Table 12, AE peptide 1 μM (fourth value), supernatant 1:2); 62 (Table 12, AE peptide 4 μM (third value), supernatant 1:2); 115 (Table 12, AE peptide 16 μM (second value), supernatant 1:2); 103 (Table 12, AE peptide 64 μM (first value), supernatant 1:2); 2 under setting [1]. In addition, the “Times Baseline Response, E^d” value reads like this: under setting [2], 18; under setting [3], 65; under setting [4], 48; under setting [5], 12.4; under setting [14], 228; under setting [8], 15.7. The “Times Baseline Response, E^d” value (Table 17, AE peptide 4 μM, supernatant 1:4) was found to be 47 and the “Times Baseline Response, E^d” value (Table 18, AE peptide 64 μM, supernatant 1:4) amounted to 12.4. The “Times Baseline Response, Ed” value (Table 3, AE peptide 64 μM, supernatant 1:4) amounted to 10.0.

Consider Ac-YRM-NH2 [AE118], for which the “Times Baseline Response, E^d” value is 0.6 under setting [9] and 1.0 under setting [10].

Take Ac-YRMKL-NH2 [AE116]: the “Times Baseline Response, E^d” value is, setting by setting: under setting [9], 2.1; under setting [10], 7.1.

Take Ac-LQLDSLRMKLPKSAK-NH2 [AE151]: the “Times Baseline Response, E^d” value under setting [15] is recorded as 2.5.

Ac-L r MKLPK-NH2 [AE161]: under setting [13], the “Times Baseline Response, E^d” value is listed as 4.0.

Turning to Ac-ARNKLPK-NH2 [AE344], the “Times Baseline Response, E^d” value under setting [14] is 7.7.

In the case of Ac- (mL) RMKLPK-NH2 [AE174], the “Times Baseline Response, E^d” value runs as follows: under setting [1], 1; under setting [2], 2; under setting [3], 40; under setting [4], 55; under setting [5], 15.9.

“Ac-LR N KLPK-NH2 (Ac-LRNKLPK-NH2) [AE202]”: the “Times Baseline Response, E^d” value is, setting by setting: under setting [11], 18.2; under setting [14], 34.4.

Regarding Ac-Y K MKLPKSAK-NH2 [AE134], the “Times Baseline Response, E^d” value was 0.7 under setting [6] and 1.2 under setting [8].

Ac-LRMKLPKSAK-NH2 [AE110]: the “Times Baseline Response, E^d” value under setting [9] turned out to be 27.8; the “Times Baseline Response, E^d” value under setting [10] worked out at 47.1; the “Times Baseline Response, E^d” value under setting [15] stood at 23.8.

Ac-LRLKYPK-NH2 [AE301]: the “Times Baseline Response, E^d” value under setting [5] was 12.5; the “Times Baseline Response, E^d” value under setting [14] amounted to 30.7; the “Times Baseline Response, E^d” value under setting [8] is on record as 20.1.

“Ac-LRMK M PK-NH2 (Ac-LRMKMPK-NH2) [AE236]”: the “Times Baseline Response, E^d” value under setting [12] worked out at 15.2.

With Ac-LRMKL p K-NH2 [AE165], under setting [13], the “Times Baseline Response, E^d” value was 26.6.

As for Ac-LR (mL) KyPk-NH2 [AE306], the “Times Baseline Response, E^d” value under setting [5] is 3.2.

Turning to Ac-Y[Cit]MKLPKSAK-NH2 [AE131], the “Times Baseline Response, E^d” value turned out to be 2.8 under setting [6] and 1.6 under setting [14].

For the substance Ac-ARNKNPF-NH2 [AE347], the “Times Baseline Response, E^d” value under setting [14] was determined as 1.0.

The values are drawn from patent US6835382B2, “Ii peptide therapeutics to enhance antigen presentation” (University of Massachusetts, priority 1996, dated 2004).
